Laboratory results reported in the NTF2 design screens of Basanta et al. (2020).

Assay: protease stability score; higher = more stable; yeast display proteolysis, trypsin and chymotrypsin;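 further: relative to predicted unfolded state with 0 unfolded-like and 1 meaning tenfold more protease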

Sequence | protease stability score
SEEKEEVKEVVEHVLEVMLTGDEEHSRELVDPHVRIEVGDKSRHGRDDMAHWLSHARIHRLHIKRSEVIGDYLHIDVHIDVEYNGKRMTTDVRRHELKVDGRWFIREERIE | 1.42
SEEKEHHHQLARDILEMLRTGNEEIWHRLLDPHVKLNIDGKEYHGREDVRQMLRDHLEKIKGIKLHVTDVKDFDGKVYVHGRWHVGNFTVDILTIYTFIDGRVHTMSEETR | 1.41
SEEKEHSDRLAEHLIHWFYTGDEDKLNELFDPNTKYVINGKELHGMESEHRERREEWRRVKNITFSIKHWDIQGNKVILHMTIHVGEKDIFVTYEYRIFDGKMKEIQVHVR | 0.867
SEEKEIAERFIEMALQVWLTGDERSMVDMVDPHVLNIVGDKEHHGREILLKFLHDFKERFPNVRVKHRDVHIDLQGDKMEVRIDGRIHFDGKQFRLEIIIITTKIDGRWRVTHWEVRIE | 2.19
SEEKEIAERIVRELLYAYHTGDEQLFNHLADPHVRIHIGEFHKVGREHWEELHRWLDNHLRIHRFFFRDVEVQGEKVHIHVRTNTIIGDKRIDTNLLFFILVVNGKIKHMEVREI | 1.81
SEEKEKAEHVVRQFLRVILTGDWERIEELMDPHVRFRVDVDGQTLHNHGRERLIDWYAKVKGLRNNLREIHIFENRAELHFESTIGDKHFKERIEIHIVDGRFKSVTFQFE | 1.42
SEEKELLEKISELLLKLLKTGDEETWNKLADPNMRLNVNGKDVHGWHKMIKLRHEVWEKLGIDHLEVKTIDIINGRVRIESRLVVNGRFIHIELEFHVINGRNEEEHLFVR | 0.418
SEEKEMLETWFLLLVESFETGDEELFEELADPRTRLVINGRHQHGREDINEWLHRVWHKLGAKHVSLDLHDMRVINGRIHSHFTLLIRIGDYTERRQVDLHMIIINGKVKHVEIRFR | 1.06
SEEKEMVLHLAELLIELEFTGNWEKLFELADPNVLSRINGRELHGMEKHRKHWEEIRIHRVHIEKVHIETIGDKAKLDIHGRLDGEVNGVRDISESVIHIVSRKYDGRWIVKSIEIRVH | 1.22
SEEKERNHEIAEILIKLWLTGDEDHFWQLADPNPRVDFDGQEIIGRESIMRLLEHLIRRLGINHKHVDHTERQGDKVHIEVRLDQGEYHRTLHLEFIYVNGRVKEVRIRSRER | 1.4
SEEKHDSEKLSHLLDHEWLTGDEESFRKLADPHVKSNINGVRLHGWRELHQFLDEHFNHLGAKIEDSDTEHIHTQGDKAFIHSTFVLLVNGKRIELETFFRSRKFDGRWVLTEVHVH | 0.521
SEEKHMYKKLIEEWLKSVITGDEEHIQHLVDPDVRMTIIFENHELRAVGWEEVVRVLKEIRIKHFELRRWDDVNGRVHLDGQMTIQFNGQEHQTSTHIEIMFINGRVKEIRLIIT | 0.986
SEEKHYFDSMLEIWRHLMQTGDERLFSELFDPNALVLFNGRHDHGRDAFRWILLQLRIDHINVHLRDFRKQGNKIIIHSEIEVDFTVNGQRREDSHMQIIIFHKIDGRWYATSLEVQ | 1.53
SEEKKAIDEVLRLIFEAELTGNEDELEHLIDPHVKFHIDGVDVHGWEYLSYWIRQIRIHNLHPRSVEIHVYNGRVEVNIRGHYEGTINGRRTTFDMRVHIRIEKIDGVWIVREMSRHNH | 1.7
SEEKKALDILLKTLIHTHQTGDEHTVRELVDPHVRIDFNGQELHGWEDARRFIVEMRLKHVDLRRVHHQGEKVELDGEVDGTYNGQEFHSKLHIVMRKVNGRWVFSQIEIK | 1.17
SEEKKAWKLSLELHRRYVETGNEEDLIRFLDPHVRLEFNGQQYVGWEEVIRIMEELGFDVLKEIRLHSLDFQGEYVEVDGEVNGNINGRDRDHRIKFRMLKVDGKWLNHSVHVI | 1.36
SEEKKESDKFFEEWVRSAQTGDEDRVREMLDPNARVEIGDKTYVGRELFLRIMVEIRIKDIILKDIRIQGDKLRNDGELLITVDGKEIRVETHIIAEKVDGRWVLSRFVWH | 1.35
SEEKKFLEKAHREILHLYKTGDEDRMSELADPDVRMRLVINGQERHHHGREEFERVFREMLDRFGVKHVEDEDSDLVNGQVHIKGTERFNGKEVRFNIIIVWVDGRVHMLSVEYR | 0.264
SEEKKFSMEMLELLLHLLLTGDWDKLNKEFDPDYRLIIGDKETIGRESVRERLRLEIERIDHIHDVKIEDWKVQGDKAHIRLRVDGNIDGKRKEFESELIVIIVDGRMKSVRIIIK | 1.97
SEEKKHVEEVARHILHLFLTGDEELWSNMADPNMRYLWNGREIVGRDLVREQNKELRTHSIEITHIEVFDGRARVRVNVDYQIGDKRINTHSLVIIVIINGRIESVFIKHD | 1.27
SEEKKLYDLAWELLLQSEKTGNEEIFERLADPHVRSHINGVDYIGRERFSELAHEINRELRIEDIHLHDVDLQGDKVNMSGSLTGHVNGKRHEYTMKIHFEKINGRWIIRSVSWE | 1.39
SEEKKQSDEAWELYIKSVETGDFRMLHELLDPNVKIHIGDKDIHGREYIMEHMLKFGVTTQSRFEVKDIKLQGDFVIIHGHIRSIFHFNGRTLRVEHDVEIFATKFDGRWWTHSVEVN | 1.18
SEEKKWEDDFMEDFLRAFHTGDFHRLLELLDPHVRIEINFENRKIDLIGREEFEKWMRRVKNARFHVEHWHSINGVNFSDTVLRYGDKEQKTELIFHVYNGKVKHIDVEFH | 2.26
SEEKQDVDEFIKRVIETLETGDWRNRHDLLDPNVRIDIDGVELIGRHIALELDWYFLRHARVRMYIRHVNVQGEYMDVDGRLHIHQGDKNIHIETRLIVHKINGRWLIKSIELR | 2.87
SEEKRDSHQAIHLFIKNRVTGNWKDLYKNVDPHARLEIGDKHFHGRELFVRLMLELGVDHFDIESVDIQGDFIHIKGQIDVNGRTLDVELVAWKYNGRWYEHSVIIK | 1.16

Sequence | protease stability score
SEEKRIDQHFTEQLDRLIETGDEEQLNKLADPHARLIFNGRTEHGREESHKLRHELLERWGHDRVHVELKDMEVQGDKLIVHTVIQINGVKFHVEIIVRKINGRWKMTEVRII | 0.314
SEELEHAERLDRMIAKAYSTGDEDVFRELLDPHVKIHDEDHHSHGMEWIRYHIERFKNVRSSVEVRRYHVQGNKIFSDGVFRLQVGDKDITRRVLFVVLKVDGRWIMESIHIE | 1.08
SEELELAKWLLEEWIRAVETGDERTLKELADPDVKMHIGDKNHIGWEEYVRFLRHLRITVRRMEVKHMHVFDGRIHIHGHFDIEINIGDKHLRRHHDVEIILVVVDGKLTSIEIRNH | 1.5
SEELRILVELVSKFYDAMKTGDEKTLKELADPNMRIIVGDKVLHGMESLKTHLKRIDHIYVHHFDYKKVDVQGDKVHVRGHSNLVLEFENHREEVIIHENWIVTKYNGRWSLESLEIR | 1.49
SEEMHWAKEFYKALLKSWRTGDEELIKDLMDPHVRLHYGDKELHGREEFVRFIQEHVSRVDHIDIHIDDMKLQGNKVHVDGIIIIHVNGRDINIRSEYIIYKVDGRWHLETVHIH | 1.59
SEENEAAKLVIEKLNHSWKTGDWRLSEKLMDPDVRVHINGQDLHGREQARKFLEEIRLHMRDVKVKEIRIVDGRLETHGHVHIELIFDGRVFRIERDVESVVLKFNGKWTLESLEVI | 1.21
SEENEHLHHLMRLVIEMFETGDEDRWYKLADPNTRMEVDGREFIGREEVIKFLRNLGVNHFWIDDVDIINGRAHIRSTLRFNGQERDLNINLHFVDGKLKREKWIIR | 0.841
SEENELAERFFKELRDHFETGDEDVLDEMADPNMKLHINGRNFHGMHVYSKLARWLVDHWRSEFKVRRIEVQGNKIIIDSQLTLHIDGQRIIHDTRMESEKVNGKWLLRQFIVV | 1.71
SEENEVIHRVIYYWIRAMKTGDEHLVSRLFDPNARHEIDGVDHVGWEEILKFFRRFDHLHHFHVNHIESHGDKIILDGRVDGEVNGQHLRFHVEIISLKVNGRWINQSEHVH | 1.81
SEEQDWLREALEIFEKTIHTGDEDTSKELADPHVRSIINGKDFVGMEIWTKILEELNKRYDHIELVFHKVENINGRVIIHGTDTIRVDGVERKIDTIIYARKVNGKWLSKSVEMR | 1.34
SEEQEEMRKLLKEFWHHTQTGDEDSFKRLADPDVKLRIDGKNYHGREATEFFTRRFDVIHDLRIHHMTIQGDWVRLEGTMHIEVGNYHDTKDVRIIILKYNGRWVNHEVRIH | 0.741
SEEQEHTREAMEVYLHLMHTGDWDRFRELVDPNVRMNINGVDLHGWEELTRFMEIFWRDLGFDHFKIHEMRIYGEKSHIRGESIIGDKSREVHIHVVIVNGRIKSEKFVET | 0.83
SEEQEITEHFSHLWLEWYLTGDFHKMLKFADPNTKMHIGDKHDHGMERYQEYERRFLEQYKGAKIYIKTVEHYDGRVVIDNIFRFDGREYQLIIEIIVVDGRLKSVHSDMK | 1.25
SEEQEKSEEFWRLVVEFLLTGDEHQILNLLDPNVLTEIGDKKYHGRELASEVLRRYADEIRLKEVELHDRDEVNGVLHLHTVVRGEYNGREINLESHWELEKVDGRWHIKRVEIR | 1.6
SEEQELLKKLAHENHESQRTGDEDFFHKLADPDARIRVGDKEIHGMEKVLEFWKTFRRQFKGLVVHLEDSHVINGQTFLHRNVNFNGVEEELEIILVVVDGRIKSIEIHLRRR | 0.653
SEEQENAERILRMWIHALETGDEHTQKRLLDPNVRDEVNGVEFHGRERAVKLMNDLHEELRIKDWIPRDIHLVNGVLILHVEVRLEVDGQSRNHEVIIVIKKVNGRWFIHRIHVR | 1.45
SEEQEVARDFFKILTHFHQTGNEEIVHELFDPNVRLHVGDKEVHGREEFIKVERELRTDDMHLRHVELQGEFIRIDVRAKGRVNGRDLEFHVHIVVRKVNGRWILTSLHIK | 0.446
SEEQHHLYSVFVRLIRNHWTGNERELHELADPNTRHTVGDKTYHGMEHVAWLLTEWVKEARLEIILRDVHVFDGRVESRIEFRLRYGDFKTTHEVRVEVNVVDGRLKEMEIDIN | 1.43
SEEQHHVEKVLWDFSHALMTGDWETVEDLVDPNVRIHINGKDFHGREEFHRLVREIRVHVEINLKSVEHIDGQATADTDVIVHLDVGDKQIDRRTRTEVIQQKFDGKWLIHTIIHR | 0.956
SEEQRLSEELFKRLVDYLLTGDWHSLKELLDPHVKVVVNGKEEIGRERMARHWLELHEKVPNMKSEFRLRYYEIQGDKAHYEVEIILHVNGRIRHIDIEVVMEKVDGRWMLHSITIR | 1.3
SEEQTRLEEETRLLIELLTTGNEEEWARMFDPHARVDLHIGDKTIHSIGRENISELVRLLRHWLGVNHNHSTQLRVIDGVSVLHTESKVGDKHSKVTWIFVIVDGRLKTMEIRVRID | 1.33
SEERAKKVAKKLMEAFVKGNKDDAKDALQEDVQLHIAGTTYHGPKAVEKLIEFWQRVGVEVKVQEVRVKGNHVEIQTQVHLGDNTTTVRYKIQVEGDKVKKLQLNFSEEVFKQAKDG | 2
SEERDHARRALNKMWKAIETGDEDTFEKLMDPDVRIEIGDKEIHGRELYVKIWQEMRFHIRRTRITDSKTFNGRVDIEFEEDFEIIVGDKIERYDYRVTFHSLKVNGRWEHSSMRLH | 0.202
SEEREDIREIIEILLHHIHTGDWREVTNLMDPNALLVYGDKIFIGREEFHKVIKRHSEEWRIHHVELKDIEVQGNKAHVDGRLDGEIDGRRVTLTTEIIAVKINGRWHVHEIVLK | 1.23
SEEREDSKKFLELVLTSWITGDWRQINKNFDPHARSHVGDKEIHGMDHVAHRMNEHLERADHIHFYLEDEHIQGNKIHVDGILQLVINGVDIRMRIRLVVLKINGRWQVHSIEIK | 1.14
